Measurements reported in article PMC12208494, “The zinc metalloprotein MigC impacts cell wall biogenesis through interactions with an essential Mur ligase in Acinetobacter baumannii” (PLOS Pathogens, 2025).

How the values were obtained:
Type in all cases: biochemical, Acinetobacter baumannii
HPLC of UMAG formation = substrate: Nc1ncnc2c1ncn2[C@@H]1O[C@H](COP(=O)(O)OP(=O)(O)OP(=O)(O)O)[C@@H](O)[C@H]1O; assay: HPLC of UMAG formation; conditions: 200 µM UMA, 1 mM D-glutamate, 2 mM MgCl2, 500 µM GTP, BSA added (no MigC), pH 7.4, 37 °C
[1] = substrate: Nc1nc2c(ncn2[C@@H]2O[C@H](COP(=O)(O)OP(=O)(O)OP(=O)(O)O)[C@@H](O)[C@H]2O)c(=O)[nH]1; assay: malachite green phosphate release; conditions: Zn-bound MigC (1 equivalent Zn), 2 mM MgCl2, 150 mM KCl, pH 7.4, 37 °C
[2] = substrate: Nc1ncnc2c1ncn2[C@@H]1O[C@H](COP(=O)(O)OP(=O)(O)OP(=O)(O)O)[C@@H](O)[C@H]1O; assay: malachite green phosphate release; conditions: Zn-bound MigC (1 equivalent Zn), 2 mM MgCl2, 150 mM KCl, pH 7.4, 37 °C

B1: MurD (Acinetobacter baumannii ATCC 17978) (protein)
chain: MLIQRGGLKVVAGLGISGVSAVNFLHEQGYQVAVTDSRPTPPGHDQIPAGVKTSFGQLDQELLLQAEEIILSPGLAPQLPEIQAAIAKGISVVGDIQLLRRATDVPIVAITGSNAKSTVTTLIGLMAKDAGKKVAVGGNLGRPALDLLKDQPELLVLELSSFQLETTSHLNAEVAVVLNMSEDHLDRHGNMLGYHQAKHRIFQGAKKVVFNRDDALSRPLVPDTTPMQSFGLNAPDLNQYGVLRDADGTLWLACGLQRLIKSSDLYIQGMHNVANALACLALGEAIGLPMESMLETLKQFKGLEHRCEYVKTVHDVRYYNDSKGTNVGATLAAIDGLGAAIEVKKGKVALILGGQGKGQDFSPLRSSIEKYAKVVVLIGEDAPVIEQAIQGATKILHAATLKEAVELCQRETQAEDVVLLSPACASFDMFKSYNDRGQQFVACVNSLV
notes: full length, N-terminal 6xHis tag removed by TEV protease, E. coli BL21(DE3)
Km (HPLC of UMAG formation): 149 ± 25 µM

B2: MigC (A1S_0934) (Acinetobacter baumannii) (protein)
chain: MKLIAQKTVPTHIISGFLGAGKTTLLQHLLSQKPKDEVWAVLMNEFGQIGVDQQLLPQDQGYAVKELLGGCLCCSSQLPMHIALARLLSEQKPDRLFIEPTGLGHPSQLFDQLTEPHWQNSLAMRALVTVVDGSRLHDTNWVKQNLYEDQLKAAQIVVVSHADTMTFEDEQALVELKEEYQPYQQQWLKTEHGQLELAQIDVPARLTERSIQPLLKLQKQMTEAEVVKEIHQLPYHYVETAQGYMVAGWKFPKRWKFEFYALLDVLCAQQDWLRIKGIFNTDQGWKTFNFNPEQFNYKSGEEGIDNRIEMISQHEHDWLAFETELLACRIEQ
notes: pre-loaded with 1 equivalent Zn; UniProt ID is the one representing MigC in a homologue alignment and may be from another strain
Km [1]: 110 ± 14 µM | Km [2]: 51.1 ± 12 µM
